Test results from the nanobody polyreactivity screen of Harvey et al. (2022).

Assay: yeast display, Sf9 membrane polyspecificity reagent, FACS + sequencing; frameworks hold sequencing errors
Outline: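 Sorting gates, low and high (top ~1%), were placed on anti-HA fluorescence to track expression and on streptavidin fluorescence to track reagent binding. A clone's polyreactivity label is taken from the gate it came out of. The reagent was 10% biotinylated, detergent-solubilized Sf9 membrane, applied for 1 hour at 4 °C to galactose-induced yeast display cells.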

QVQLVESGGGLVQAGGSLRLSCADSGLTFRRYAMGWYRQAPGKERELVAAITRGGSTNYADSVKGRFTISRVNAKNTVYLQMNSLKPEDTAVYFCAAVYSTRSTSYWMDYWGQGTQVTVSS
polyreactivity (PSR sort gate): high polyreactivity

QVQLVESGGGLVQAGGSLRLSCADSGRIFASYAMGWYRQAPRKERELVAAISWRGGTTYYADSVKGRFTSSRDNAKNTVYLQMNSLKPEDTAVYYCATTSSLGSWGYDYWGQGTQVTVSS
polyreactivity (PSR sort gate): high polyreactivity

QVQLVESGGGLVQAGGSLRLSCADSGRIFRYYAMGWYRQAPGKERELVAAITWSGGTTIYADSVKGRFSISRDNAKNTVYLQMNSLKPEDTAVYYCNAARSRGANLVPPYRLYYWGQGTQVTVSS
polyreactivity (PSR sort gate): low polyreactivity

QVQLVESGGGLVQAGGSLRLSCADSGRIYGIYAMGWYRQAPGKERELVAAITNIGGRTYYADSVKGRFTISRDNAKNTVYLQMNSLKPEDTAVYYCAKRWRRRFVDVWSLYDYWGQGTQVTVSS
polyreactivity (PSR sort gate): low polyreactivity

QVQLVESGGGLVQAGGSLRLSCADSGRTFGPNAMGWYRQAPGKERELVAAITGGGSTYYADSVKGRFTISRDNAKNTVYLQMNSLKPEDTAVYYCAAVWTYWYYGDDYWGQGTQVTVSS
polyreactivity (PSR sort gate): low polyreactivity

QVQLVESGGGLVQAGGSLRLSCADSGRTFVGNAMGWYRQAPGKGWEFVAAISRSGGSTNYADSVKGRFTISRDNAKNTVYLQMKSLKPEDTAVYYCAARDRFGGIRRYIYWGQGTQVTVSS
polyreactivity (PSR sort gate): high polyreactivity

QVQLVESGGGLVQAGGSLRLSCADSGRTFYHYAMGWYRQAPGKERELVATITSSGGNTYYADSVKGRFTISRDNAKNTVYLQINSLKPEDTAVYYCAADWFVYQYSFGSSEYYYWGQGTQVTVSS
polyreactivity (PSR sort gate): low polyreactivity

QVQLVESGGGLVQAGGSLRLSCADSGRTQWSYAIGWYRQAPGKERELVATISYSGGSTYYADSVKGRFTISRDNAKNTVYLQMNSLKPEATAVYYCNAVARWYVLQVYEYDYWGEGTQVTVSS
polyreactivity (PSR sort gate): low polyreactivity

QVQLVESGGGLVQAGGSLRLSCADSGRTSYYYVMGWYRQAPGKERELVAAIRSRGGSTYYADSVKGRFTISRDNAKNTVYLQMNSLKPEDTAVYYCAARYGFWSYDFGYWGLGTQVTVSS
polyreactivity (PSR sort gate): high polyreactivity

QVQLVESGGGLVQAGGSLRLSCADSGSIFIANAMGWYRPAPGKERELVAAIDSGGSTNYADSVKGRFTSSRDNAKNTVYLQMNSLKPEDTAVYYCAADGTLTAPGGDYWGQGTQVTVSS
polyreactivity (PSR sort gate): high polyreactivity

QVQLVESGGGLVQAGGSLRLSCADSGSIFKYYAMGWYRQAPGKERELDASISWSGGTTYYADSVKGRFTISRDNAKNTVYLQMNSLKPEDTAVYYCNARWWVRYSNKYDYWGQGTQVTVSS
polyreactivity (PSR sort gate): high polyreactivity

QVQLVESGGGLVQAGGSLRLSCADSGSIFRRNAMGWYRQAPGKERELVAGIRGSGGSTYYADSVKGRFTISRDNAKNTVYLQMNSLKPEDTAVYYCAARRSYYHGSYDYWGQGTQVTVSS
polyreactivity (PSR sort gate): high polyreactivity

QVQLVESGGGLVQAGGSLRLSCADSGSIFTYTMGWYRQAPGKERELVAVISRSGGRTYYADSVKGRFTISRDNAKNTVYLQMNSLKPEDTAVYYCATDGHNGYYGRYDYWGQGTQVTVSS
polyreactivity (PSR sort gate): high polyreactivity

QVQLVESGGGLVQAGGSLRLSCADSGSIGYYAMGWYRQAPGKERELVAVISRSGTGTYYADSVKGRFTISRDNANNTVYLQMNSLKPEDTAVYYCNAETYTYRYENDYWGQGTQVTVSS
polyreactivity (PSR sort gate): high polyreactivity

QVQLVESGGGLVQAGGSLRLSCADSGSIIYYAMGWNRQAPGKEREFVAAITKSGGSTYYADSVKGRFTISRDNAKNTVYLQMNSLKPEDTAVYYCAARGTWAGFYYWGQGTQVTVSS
polyreactivity (PSR sort gate): high polyreactivity

QVQLVESGGGLVQAGGSLRLSCADSGSIVLVNAMGWSRQAPGKEREMVAAITYGGDSTYYADSVKGRFTISRDNAKNSVYFQINSLKREDTAVYYFAADAWVGWHDEYDYWGQGTQVTVSS
polyreactivity (PSR sort gate): low polyreactivity

QVQLVESGGGLVQAGGSLRLSCADSGSIYHNYDMGWYRQAPGKEKEFVADISRGGDTIYADSVKGRFSISRDNAKNTVYLQMNSLKPEDTAVYYCNATYWILDSPWWRETFDYWGQGTQVTVSS
polyreactivity (PSR sort gate): low polyreactivity

QVQLVESGGGLVQAGGSLRLSCADSGSTFGYYAMGWYRQAPGKERELVAGISSGGTTKYADSVKGRFTISRDNAKNTVYLQMNSLKPVDTAVYYCAARFRRTRVTYYYWGQGTQVTVSS
polyreactivity (PSR sort gate): high polyreactivity

QVQLVESGGGLVQAGGSLRLSCADSGSTFKGYTMGWYRQAPGKERELVAAIRSRSGNTYYADSVKGRFTISRDNAKNHVYLLMNSLKPEETAVYYCAAVQPYVDYDSWGQGTQVTVSS
polyreactivity (PSR sort gate): high polyreactivity

QVQLVESGGGLVQAGGSLRLSCADSGSTFKYYAMGWYRQAPGKEREFVASINWSGVSTYYADSVKGRFTISRDNPKNTVYLQMNSLKPEDTSVYYCAARVRGKYDYWGQGTQVTVSS
polyreactivity (PSR sort gate): high polyreactivity

QVQLVESGGGLVQAGGSLRLSCADSGSTFRIFAMGWYRQAPGKERELVAAITGGGTHYADSVKGRFTISRDNAKNTVYLQMNSLTPEDTAVYYCAANRSKLYRYAMGYWGQGTQVTVSS
polyreactivity (PSR sort gate): high polyreactivity

QVQLVESGGGLVQAGGSLRLSCADSGSTFSYNAMGWYRQAPGKERELVATITYSGTSTHYADSVKGRFTISRDNAKNTVYLQMNSLKPEDTAVYYCNAYSKGWGLPDDYWGQGTLVTVSS
polyreactivity (PSR sort gate): low polyreactivity

QVQLVESGGGLVQAGGSLRLSCADSGSTFWYYVMGWYRQAPGKERELVAVINTRGGSTYYADSVKGRFTISRDNAKNTVYLQMNSLKPEDTAVYYCNARKVKRGKYNYWGQGTQVTVSS
polyreactivity (PSR sort gate): high polyreactivity

QVQLVESGGGLVQAGGSLRLSCADSGSTFYPYAMGWYRQAPGKEREFVAAISRGGTTTYYADSVKGRFTISRDNAKNTVYLQMNSLKPEDTAVYYCAARYVSVYRWTYDYWGQGTQVTVSS
polyreactivity (PSR sort gate): high polyreactivity

QVQLVESGGGLVQAGGSLRLSCADSGSTFYYYAMGWYRQAPGKERELVAAISTSGGSTYYADSVKGRFTISRDNAKNTVYFQMNSLKPEDTAVYYCAARYRRGMGYWGQGTQVTVSS
polyreactivity (PSR sort gate): high polyreactivity

QVQLVESGGGLVQAGGSLRLSCADSGSTIYPYAMGWYRQAPGKERELVAAINRSGGRTYYADSVKGRFTISRDNAKNTVYLQMISLKPEDTAVYYCAARVRSRNSYDYWGQGTQVTVSS
polyreactivity (PSR sort gate): low polyreactivity

QVQLVESGGGLVQAGGSLRLSCADSGSTLIGNAMGWYRQAPGKERELVAAISSGGRTYYADSVKGRFTISRDNAKNTVYLQMNSLKPEDTAVYYCAADTVGTNVVSPELDYWGQGTQVTVSS
polyreactivity (PSR sort gate): low polyreactivity

QVQLVESGGGLVQAGGSLRLSCADSGSTYGGYAMGWYRQAPGKERELVAAISQSGGRTYYADSVKGRFTISRDNAKITVYFQMNSLKPEDTAVYYCAAYRTGYGRFTLDYWGQGSQVTVSS
polyreactivity (PSR sort gate): high polyreactivity

QVQLVESGGGLVQAGGSLRLSCADSGYTFLDYAMGWYRQAPGKERELVAAINSGGSTYYADSVKGRFTISRDNAKNTVYLQMNSLKPEDTAVYYCAREDYVSYRLLYSLFDYWGQGTQVTVSS
polyreactivity (PSR sort gate): low polyreactivity

QVQLVESGGGLVQAGGSLRLSCADSGYTFYFYAMGWYRQAPGKESELVAAITGGGTTSYADSVKGRFTISRDNAKNTVYLEMNSLKPEDTAFYYCAAYAYGVWQYQYGGNYWGQGTQVTVSS
polyreactivity (PSR sort gate): low polyreactivity

QVQLVESGGGLVQAGGSLRLSCADSVFTFGYYAMGWYRQAPGKERELVAAISRNGGRTYYADSVKGRFTISRDNAKNNVYLQMNSLKTVYTAVHYCNALLFFLNRVWSFDYWGQGTQVTVSS
polyreactivity (PSR sort gate): high polyreactivity

QVQLVESGGGLVQAGGSLRLSCADSVSIVGYYTMGWYRQAPWKARELVSGITSTGNTNYADSVKGRFTISRDNAKNTVYLHMNSLKPEHTAVYYCAADSESTWDFGWELEVGYDYWGQGTQVNVSS
polyreactivity (PSR sort gate): low polyreactivity

QVQLVESGGGLVQAGGSLRLSCAEYAMGCYRQAPGKERELVATITARGGSTYADSVKGRFTISRDNAKNTVYLQMNSLKPEDTAVYYCNADYGLFYRATFYGYDYWGQCTQVTVSS
polyreactivity (PSR sort gate): low polyreactivity

QVQLVESGGGLVQAGGSLRLSCAGLRIYLPGYAKGWYIQAPGKERELVAVISGSGSGTYYADSVKGRFTISLDNAKNTVYLQMNSLKPEDTAVYYCAADAGSNEAYFRRMDYWGQGTQVTVSS
polyreactivity (PSR sort gate): high polyreactivity

QVQLVESGGGLVQAGGSLRLSCAGSGFTFQYYAMGWYRQAPGKERELVAAMSWGGGSTYYADSVKGRFTISRDNAKKTVYLQMNSLKPEDTAVYYCNAYDYLSAGDDYWGQGTQVTVSS
polyreactivity (PSR sort gate): low polyreactivity

QVQLVESGGGLVQAGGSLRLSCAGSGFTLDGYVMGWYRQAPGQEREFVAAIRSSGGSTRYADSVKGRFTISRDNAKNTVYLQMNSLKPEDTALYYSAAVAYYWGYEQWYDYWGQGTQVTVSS
polyreactivity (PSR sort gate): high polyreactivity

QVQLVESGGGLVQAGGSLRLSCAGSGITFYWYAMGWDRQAPGKERELVAGISQSGSRTYYADSVKGRFTISRDNAKNTVYLQMNSLKPEDTAVYYCAARVRWSPTRTFEYWGQGTQVTVSS
polyreactivity (PSR sort gate): high polyreactivity

QVQLVESGGGLVQAGGSLRLSCAGSGRTFWANTMGWYIQAPGKEREFVAAISGRDVSTYYADSVKGRFTISRDNAKNTVFLQMNSLKPEDTAVYYCAAQWQYLGHMGYWGQGTQVTVSS
polyreactivity (PSR sort gate): low polyreactivity

QVQLVESGGGLVQAGGSLRLSCAGSGSISYFNAMGWYRQAPGKERELVAAISYSGGSTYYADSVKGRFTISRDNAKNTVYLQMNSLKPEDTAVYYCAADRLIGWRKTYYYWGQGTQVTVSS
polyreactivity (PSR sort gate): high polyreactivity

QVQLVESGGGLVQAGGSLRLSCAGSGSTFKKYPMGWYREATGKEREFVAAISRGGRTYYADSVKGRFTSSRDNAKTTVYLQMNSLNPEDTAVYYCAADTFAYQEVYYWGQGTQVTVSS
polyreactivity (PSR sort gate): high polyreactivity

QVQLVESGGGLVQAGGSLRLSCAGSGSTFRYYVLGWYRAAPGKDRVLVARITSAASTNYADSVKGRFTISRDNAKTTVNLQMNSLKPEDTPVYYCAADAYWIRSRFLYRIRYNYWGQGTQVTVSS
polyreactivity (PSR sort gate): high polyreactivity

QVQLVESGGGLVQAGGSLRLSCAGSGSTFVYNAMGWYRQAPGKERELVAAITAAGGRTYYADSVKGRFTISRDTAKNTVYLQMNSLKPEDTAVYYCYTVRPHGMDYWGQGTQVTVSS
polyreactivity (PSR sort gate): high polyreactivity

QVQLVESGGGLVQAGGSLRLSCAGSGSTFYRYALGWYRQAPGKEWEWVAVINSGCSTYYADSVKGRFTISRDNAKHTVYVQMNSMKPEDTAVSYCAAVRNQGGYVYGYGYWGQGTQVTVSS
polyreactivity (PSR sort gate): high polyreactivity
